The record followed here is patent US20240425603A1.

A word on the IC50: it is the point on the concentration scale where inhibition reaches its midpoint.

Experiment [1] has as its target human VEGFR2, over-expressed on HEK293 cells (human) (UniProt P35968). Put plainly: flow cytometry, HEK cells over-expressing human VEGFR2. (In flow cytometry, cells or beads pass a laser one at a time.)
Experiment [2] has as its target human VEGFR3, over-expressed on K562 cells (human) (UniProt P35916). The experiment is described as follows: flow cytometry, K562 cells over-expressing human VEGFR3.
The target of experiment [3] is Recombinant mouse VEGFR1-Fc (R&D Systems) (mouse) (UniProt P35969). Put plainly: MSD ECL competition on plate-bound mouse VEGFR1-Fc; competitor biotin PlGF (2 nM).
Sequence of Recombinant mouse VEGFR1-Fc (R&D Systems) (mouse) (P35969 27-759 limits assumed): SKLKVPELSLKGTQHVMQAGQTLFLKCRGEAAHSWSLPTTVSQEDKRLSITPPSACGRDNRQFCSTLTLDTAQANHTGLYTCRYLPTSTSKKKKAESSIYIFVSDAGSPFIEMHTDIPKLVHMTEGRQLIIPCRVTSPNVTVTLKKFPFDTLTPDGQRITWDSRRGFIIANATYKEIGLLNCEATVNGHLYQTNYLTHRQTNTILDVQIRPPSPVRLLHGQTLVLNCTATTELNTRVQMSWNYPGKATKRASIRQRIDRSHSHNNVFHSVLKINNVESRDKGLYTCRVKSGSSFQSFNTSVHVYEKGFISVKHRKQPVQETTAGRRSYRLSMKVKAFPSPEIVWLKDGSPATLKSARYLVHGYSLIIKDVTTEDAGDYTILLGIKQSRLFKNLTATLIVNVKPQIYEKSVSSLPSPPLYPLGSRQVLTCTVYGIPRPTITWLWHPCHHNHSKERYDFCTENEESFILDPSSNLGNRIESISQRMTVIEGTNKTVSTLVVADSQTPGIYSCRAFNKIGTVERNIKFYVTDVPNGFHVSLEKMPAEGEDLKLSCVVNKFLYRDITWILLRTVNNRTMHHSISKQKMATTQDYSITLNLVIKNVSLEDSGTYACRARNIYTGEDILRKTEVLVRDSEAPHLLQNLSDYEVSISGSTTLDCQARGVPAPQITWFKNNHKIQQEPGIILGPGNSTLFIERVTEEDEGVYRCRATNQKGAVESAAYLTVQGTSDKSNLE

Sequence of human VEGFR2, over-expressed on HEK293 cells (human) (P35968 20-1356): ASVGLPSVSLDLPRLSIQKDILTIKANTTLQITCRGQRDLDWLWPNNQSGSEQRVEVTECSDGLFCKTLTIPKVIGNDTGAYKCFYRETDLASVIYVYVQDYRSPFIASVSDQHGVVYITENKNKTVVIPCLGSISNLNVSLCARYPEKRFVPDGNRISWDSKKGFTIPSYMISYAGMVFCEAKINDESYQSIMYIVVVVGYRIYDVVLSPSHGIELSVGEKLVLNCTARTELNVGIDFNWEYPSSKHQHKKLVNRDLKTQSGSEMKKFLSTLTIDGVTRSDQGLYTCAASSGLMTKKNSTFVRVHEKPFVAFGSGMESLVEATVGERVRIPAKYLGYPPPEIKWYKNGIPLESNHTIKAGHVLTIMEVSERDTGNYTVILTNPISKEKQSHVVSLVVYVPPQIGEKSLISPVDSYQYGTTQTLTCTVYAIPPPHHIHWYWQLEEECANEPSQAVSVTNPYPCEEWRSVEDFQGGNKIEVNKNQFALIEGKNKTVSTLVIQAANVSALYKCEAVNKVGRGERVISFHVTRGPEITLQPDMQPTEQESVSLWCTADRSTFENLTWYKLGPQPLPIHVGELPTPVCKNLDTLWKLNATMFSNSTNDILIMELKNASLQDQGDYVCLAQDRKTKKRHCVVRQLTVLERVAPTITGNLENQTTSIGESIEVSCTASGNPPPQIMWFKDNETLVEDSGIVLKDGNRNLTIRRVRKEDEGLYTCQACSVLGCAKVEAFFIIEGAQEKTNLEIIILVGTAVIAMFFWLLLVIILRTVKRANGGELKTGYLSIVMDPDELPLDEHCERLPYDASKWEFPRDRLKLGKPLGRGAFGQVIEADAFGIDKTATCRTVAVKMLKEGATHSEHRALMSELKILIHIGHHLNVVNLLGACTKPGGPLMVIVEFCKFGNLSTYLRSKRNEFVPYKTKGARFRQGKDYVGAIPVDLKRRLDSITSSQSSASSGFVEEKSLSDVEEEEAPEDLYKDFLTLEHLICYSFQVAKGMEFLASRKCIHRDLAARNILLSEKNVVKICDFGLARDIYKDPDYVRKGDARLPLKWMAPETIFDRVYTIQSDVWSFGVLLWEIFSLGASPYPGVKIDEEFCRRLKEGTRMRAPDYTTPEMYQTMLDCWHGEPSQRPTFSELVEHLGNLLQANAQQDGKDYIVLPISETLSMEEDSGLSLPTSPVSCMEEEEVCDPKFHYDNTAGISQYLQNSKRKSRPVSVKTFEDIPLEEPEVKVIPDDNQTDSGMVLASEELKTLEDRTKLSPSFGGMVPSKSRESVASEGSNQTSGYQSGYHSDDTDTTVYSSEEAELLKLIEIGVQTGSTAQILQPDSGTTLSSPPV
Sequence of human VEGFR3, over-expressed on K562 cells (human) (P35916 25-1363): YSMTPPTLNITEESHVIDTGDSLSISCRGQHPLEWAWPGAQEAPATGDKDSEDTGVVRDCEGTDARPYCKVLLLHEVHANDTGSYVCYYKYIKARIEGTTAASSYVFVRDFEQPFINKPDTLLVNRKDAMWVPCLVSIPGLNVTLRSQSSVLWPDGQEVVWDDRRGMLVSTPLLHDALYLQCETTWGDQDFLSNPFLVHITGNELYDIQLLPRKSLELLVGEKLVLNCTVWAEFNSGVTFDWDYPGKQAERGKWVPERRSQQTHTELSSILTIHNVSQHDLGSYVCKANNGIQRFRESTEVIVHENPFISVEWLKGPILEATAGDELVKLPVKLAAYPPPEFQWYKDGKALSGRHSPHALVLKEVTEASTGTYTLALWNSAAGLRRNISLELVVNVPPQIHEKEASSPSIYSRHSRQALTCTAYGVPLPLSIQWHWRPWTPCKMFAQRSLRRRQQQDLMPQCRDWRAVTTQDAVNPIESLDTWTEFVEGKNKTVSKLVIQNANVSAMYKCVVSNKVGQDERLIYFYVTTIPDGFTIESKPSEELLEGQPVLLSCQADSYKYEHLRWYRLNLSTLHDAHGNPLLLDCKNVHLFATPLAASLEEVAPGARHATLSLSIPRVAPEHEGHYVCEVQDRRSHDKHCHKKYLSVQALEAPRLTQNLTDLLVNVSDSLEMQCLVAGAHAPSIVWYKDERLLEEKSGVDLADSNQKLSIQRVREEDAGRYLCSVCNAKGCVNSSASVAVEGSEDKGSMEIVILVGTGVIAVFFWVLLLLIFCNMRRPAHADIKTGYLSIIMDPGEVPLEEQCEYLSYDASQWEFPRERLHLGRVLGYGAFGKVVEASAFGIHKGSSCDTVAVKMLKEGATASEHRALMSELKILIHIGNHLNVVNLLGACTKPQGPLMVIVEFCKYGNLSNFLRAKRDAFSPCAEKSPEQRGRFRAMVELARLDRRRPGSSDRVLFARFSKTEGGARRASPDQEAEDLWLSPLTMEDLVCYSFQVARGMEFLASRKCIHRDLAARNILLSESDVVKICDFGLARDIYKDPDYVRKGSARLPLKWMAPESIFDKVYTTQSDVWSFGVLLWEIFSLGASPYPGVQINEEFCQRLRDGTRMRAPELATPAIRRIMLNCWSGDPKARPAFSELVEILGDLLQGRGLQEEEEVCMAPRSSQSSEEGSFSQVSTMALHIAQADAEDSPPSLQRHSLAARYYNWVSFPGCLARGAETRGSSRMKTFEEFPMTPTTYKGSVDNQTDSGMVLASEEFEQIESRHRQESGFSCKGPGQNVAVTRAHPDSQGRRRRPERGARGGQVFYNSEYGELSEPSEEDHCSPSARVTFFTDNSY

Turning to “Goat anti-human VEGFR2 (R&D Systems Catalog #AF357) (antibody)”, the Geomean over-expressing/Geomean parental (Fold Signal/Background) in experiment [1] worked out at 28 fold.

Consider “Goat anti-human VEGFR3 (R&D Systems Catalog #AF349) (antibody)”, for which the Geomean over-expressing/Geomean parental (Fold Signal/Background) in experiment [2] was determined as 132 fold. On to PlGF as used on mouse VEGFR1 (ligand), for which, in experiment [3], the IC50 is 0.163 nM and the Max % Inh. amounted to 100%.
